Assay results reported in paper PMC10127204, “Unique Initiation and Termination Mechanisms Involved in the Biosynthesis of a Hybrid Polyketide-Nonribosomal Peptide Lyngbyapeptin B Produced by the Marine Cyanobacterium Moorena bouillonii” (ACS Chemical Biology, 2023).

Key:
Type in all cases: biochemical, Moorena bouillonii
Conditions in all cases: Fe2+ and molecular oxygen required
[1] = substrate: CC1=N[C@H](C(=O)O)CS1; test: kinetic analysis of 2-methylthiazole formation
[2] = substrate: CC1=N[C@@H](C(=O)O)CS1; test: kinetic analysis of 2-methylthiazole formation
[3] = substrate: O=C(O)[C@@H]1CSC(c2ccccc2)=N1; test: kinetic analysis of 2-phenylthiazole formation

B1: LynB7 (Moorena bouillonii) (protein)
chain: MVKTYEIIDADSHVLEPLDLWEKYLEPEFKHFAPKEDYKLEGEPILYKFNPSDFVESEAAKRAQEDPDIYKGGYDPKARVELMEQMGSDMTFLYPTIGLWMWSVDTMDSKLAGAFVRSYNNWLHDFCNYAPQKLKGIGAINQHDPEEMVPELQRIVEFGWKAVFIRPNPVKGRILSDPVYEPFWSECERLNVAVTVHEGTHSRLPTTGADRFDSRFALHACSHPMEQMMALLALIEGGVLERHPQLRVGFFESGCGWLPYWLWRLDEEYENLYYEVKDNVKMKPSEYFHRQCYTGFEVDEPYLAELIEYIGADKLLFGSDFPHMDHPNFIESVDETLALREKLPEDVIKKILHDNPLRYYGLT
Q: Which Km [1] does the source give for B1 here?
A: 2100 ± 200 µM

Q: And the kcat [1]?
A: 17 ± 0.7 s^–1

Q: And the Km [2]?
A: 3600 ± 700 µM

Q: What about the kcat [2] of the same protein?
A: 1.3 ± 0.1 s^–1

Q: And the Km [3]?
A: 1500 ± 300 µM

Q: And the kcat [3]?
A: 11 ± 0.5 s^–1
